This is an account of results in the supplement of paper PMC10724198.

± gives the standard deviation of the averaged measurements.
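Also: PSI is a weighted mean of sequencing reads over stability bins, variants kept only with over 10 reads, mCherry proximal and sfGFP distal, peptide attached via GGGS linker.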

The series deals with Saccharomyces cerevisiae. Put plainly: protein stability index of tFT-peptide fusion (C-terminal peptide) (PSI (0-1 scale)); higher = more stable (slower turnover). As to conditions: genetic background: wild type; temperature: 30 C.
As to SPVGRRTLPSGF, the protein stability index is 0.692 ± 0.023.
Regarding SPWFPLPSFPLA, the protein stability index was 0.73 ± 0.029.
In turn, SQGDVLLFMFLW showed a protein stability index of 0.548 ± 0.033.
Under SQGSCCTALDVA stands 0.675 ± 0.046; under SQLEPNNVQVTT, 0.68 ± 0.0069.
Under SQLRSSTSARYV stands 0.692 ± 0.14; under SQPLPNRLKTRG, 0.695 ± 0.032.
Under SQPNRESQNTFN stands 0.711 ± 0.052; under SQTEAGSICTLP, 0.676 ± 0.05; under SRDMGYFFPKLK, 0.655 ± 0.073.
In the case of SRFDAGYRGTIT, the protein stability index came to 0.68 ± 0.034.
SRGMERIWEFGR displayed a protein stability index of 0.612 ± 0.036.
SRGNYKLIWSDT gave a protein stability index of 0.731 ± 0.093.
SRHWCHDTGTLT returned a protein stability index of 0.7 ± 0.012.
Under SRIGNADAAQGM stands 0.732 ± 0.042; under SRKSDTMPSYPL, 0.791 ± 0.26.
Under SRLQIRIRINEV stands 0.572 ± 0.032.
Under SRLVCSTLHWRD stands 0.699 ± 0.021; under SRNRYSSPPVFI, 0.644 ± 0.039; under SRPISCSLPCCV, 0.646 ± 0.054.
In turn, SRPLVPSPPSPV yielded a protein stability index of 0.663 ± 0.02.
Under SRPPPYAPPSPP stands 0.716 ± 0.01; under SRPRLPPSPCLF, 0.631 ± 0.032.
Under SRPRPPVTPPSE stands 0.648 ± 0.054; under SRPSPPPRRPLG, 0.759 ± 0.067.
Under SRRAPPPLYLPL stands 0.699 ± 0.067.
SRSAQAGFKVFN registered a protein stability index of 0.712 ± 0.2.
SRSFVPRNSPRI displayed a protein stability index of 0.6609 ± 0.0051.
Under SRSRPSRTLPLD stands 0.695 ± 0.022.
As to SRSSASTKRNRW, the protein stability index worked out at 0.701 ± 0.096.
Under SRSSRINLMRRW stands 0.674 ± 0.021.
In turn, SRVLLPPQTLLL had a protein stability index of 0.573 ± 0.035.
Under SRVVSPLFNLCL stands 0.692 ± 0.018; under SRVWACCGVIGV, 0.667 ± 0.067; under SRWHVCGWYKRR, 0.682 ± 0.016.
As to SRWWSRPRYRDG, the protein stability index came out at 0.752 ± 0.017.
In turn, SRYGKVIRKKHE returned a protein stability index of 0.756 ± 0.021.
Under SSDLTKKCNRLR stands 0.673 ± 0.023; under SSFCWAGWGGVC, 0.778 ± 0.059; under SSGRWLFLPPCP, 0.899 ± 0.13.
SSLGLFISTASV gave a protein stability index of 0.664 ± 0.042.
In turn, SSLIGHTLRPLV yielded a protein stability index of 0.686 ± 0.022.
Under SSLLSLPLRCSF stands 0.717 ± 0.039.
Regarding SSLPSFPTKCPF, the protein stability index was 0.71 ± 0.051.
Under SSLPSTGPRPLH stands 0.582 ± 0.038; under SSNVVLYHSCSQ, 0.65 ± 0.018.
SSPARPTRTSPA came in with a protein stability index of 0.652 ± 0.061.
SSPDLGPVCVPC returned a protein stability index of 0.647 ± 0.016.
Under SSPFCPLFQNPL stands 0.757 ± 0.056.
Under SSPLPHPSFSPS stands 0.689 ± 0.017; under SSPLRLAPTEPS, 0.6927 ± 0.0039.
For the sequence SSPLRVLGPESG, the protein stability index was 0.689 ± 0.062.
Under SSPPPPPPPPSP stands 0.746 ± 0.053.
Under SSPPTHAPPLPP stands 0.688 ± 0.017; under SSPSPAPPPPRP, 0.738 ± 0.069.
With SSQLKMESLFII, the protein stability index is 0.624 ± 0.064.
Under SSQRPRCTFVLL stands 0.684 ± 0.031; under SSRPPPVLTPAR, 0.745 ± 0.044; under SSRSQTVRTFAL, 0.689 ± 0.068.
Under SSSFLVLSSHFI stands 0.701 ± 0.028; under SSSPLPPPRLPP, 0.7039 ± 0.0016; under SSSPPPPSLAPP, 0.693 ± 0.0025.
SSTLPVYLSTTL showed a protein stability index of 0.662 ± 0.023.
The sequence SSTSPPPVTPPD displayed a protein stability index of 0.625 ± 0.0096.
Under SSVCPWACPPPP stands 0.666 ± 0.1; under SSVVCGPGVLGV, 0.729 ± 0.077; under STAEFLDFKMTT, 0.691 ± 0.05.
Under STAPRYNGRKYS stands 0.702 ± 0.069; under STFASLRPLFFS, 0.6128 ± 0.0012.
Turning to STGACCGTVRLL, the protein stability index turned out to be 0.642 ± 0.0085.
For STGDWKLKFSKF, the protein stability index came out at 0.765 ± 0.066.
Sequence STGLITYNYSVC had a protein stability index of 0.648 ± 0.024.
Under STGVGGPCGRTS stands 0.617 ± 0.055; under STKVEIKKRDSR, 0.715 ± 0.18; under STLPPSRLSSPL, 0.638 ± 0.017.
Under STLRGTTESERK stands 0.665 ± 0.057; under STLVHSDESQLA, 0.633 ± 0.092; under STNLITPPITNI, 0.677 ± 0.011.
Under STPLPPPTPLPA stands 0.723 ± 0.029; under STPPCRPFMADL, 0.619 ± 0.0035.
